From patent US20060263849A1, “Glucagon-like peptide-1 analogs” (priority 2000, published 2006)
Where no end group is shown, it is not given here.

Columns and labels:
[1] = GLP Aggregation Assay (time to onset of aggregation, turbidity at 350 nm); format: physicochemical; details: for Aggregation Time: 0.3 mg/mL in 10 mM citrate, 10 mM phosphate, 150 mM NaCl, pH 7.4 to 7.5, 37° C., stirred, turbidity at 350 nm
Description: GLP peptides of this invention were analyzed with respect to their potential to aggregate in solution. In general, peptides in solution were stirred at elevated temperature in a suitable buffer while recording turbidity at 350 nm as a function of time. Time to the onset of aggregation was measured to quantify the potential of a given GLP molecule to aggregate under these stressed conditions.
A GLP-1 compound was first dissolved under alkaline conditions (pH 10.5) for 30 minutes to dissolve any pre-aggregated material. The solution was then adjusted to pH 7.4 and filtered. Specifically, 4 mg of a lyophilized GLP-1 compound was dissolved in 3 ml of 10 mM phosphate/10 mM citrate. The pH was adjusted to 10.0-10.5 and held for 30 minutes. The solution was adjusted with HCl to pH 7.4 and filtered through a suitable filter, for example a Millex GV syringe filter (Millipore Corporation, Bedford, Mass.). This solution was then diluted to a final sample containing 0.3 mg/mL protein in 10 mM citrate, 10 mM phosphate, 150 mM NaCl, and adjusted to pH 7.4 to 7.5. […] Every five minutes the turbidity of the solution was measured at 350 nm on an AVIV Model 14DS UV-VIS spectrophotometer (Lakewood, N.J.). For 30 seconds prior to and during the measurement the solution was stirred using a magnetic stir bar from Starna Cells, Inc. (Atascadero, Calif.). An increase in OD at 350 nm indicates aggregation of the GLP-peptide. The time to aggregation was approximated by the intersection of linear fits to the pre-growth and growth phase according to method of Drake (Arvinte T, Cudd A, and Drake A F. (1993) J. Bio. Chem. 268, 6415-6422).
The cuvette was cleaned between experiments with a caustic soap solution (e.g., Contrad-70).
The results for a number of GLP-1 compounds of the present invention are reported in Table 1 as the time in hours required for the compound to aggregate.

[2] = test system: GLP-1 receptor; assay: GLP-1 receptor activation, in vitro assays; format: cell-based; details: activity relative to the activity of GLP-1(7-37)OH
From the text: “Insulinotropic activity” refers to stimulating insulin secretion in response to elevated glucose levels, thereby causing glucose uptake by cells and decreased serum glucose levels. Insulinotropic activity can be assessed by methods known in the art, including using in vivo experiments and in vitro assays that measure GLP-1 receptor binding activity or receptor activation, e.g., assays employing pancreatic islet cells or insulinoma cells, as described in EP 619,322 to Gelfand, et al., and U.S. Pat. No. 5,120,712, respectively. The entire teachings of these references are incorporated herein by reference.
The ability of the GLP-1 compounds of the present invention to activate the GLP-1 receptor was assessed using in vitro assays such as those described in EP 619,322 to Gelfand, et al., and U.S. Pat. No. 5,120,712, respectively. The entire teachings of these references are incorporated herein by reference.

[3] = Zinc precipitation of GLP-1 compounds (A280 of supernatant); format: physicochemical; details: HEPES pH 7.4, 22° C., 18 hours
Description: Individual GLP-1 compounds were prepared as described in Examples 1 or 2. 3 mg of an individual lyophilized GLP molecule was dissolved in 3 ml 0.1 M HEPES buffer pH 10.5. The pH of the resulting solution was then adjusted to between 10.0 and 10.5 with 0.2 N NaOH. The solution was stirred at ambient temperature for 30 minutes and the solution was then adjusted to a pH of 7.4 with 0.2 N HCl. The solution was filtered through an appropriate syringe filter, for example a Millex GV syringe filter (Millipore Corporation, Bedford, Mass.), and the concentration of the GLP-1 compound was estimated by measuring the absorption at 280 nm in a spectrophotometer, for example a Beckman DU640. The protein concentration was then adjusted to 200 μM in HEPES pH 7.4.
The filtered GLP-1 solutions (100 μl) were diluted with 100 μl of 0.1 M HEPES pH 7.4 containing various levels of zinc chloride in an ELISA plate, (e.g. Falcon Microtest™ 96) resulting in 200 μl of solution containing various levels of zinc chloride and 100 μM GLP-1 compounds. These solutions were incubated at ambient temperature (22° C.) for 18 hours and then centrifuged, for example, in a Jouan CR412 centrifuge with microplate adapters. 150 μl of the supernatants after centrifugation were then transferred to a UV-readable ELISA microtiter plate (e.g. Costar UV plate) and the OD at 280 was determined in a microplate reader (e.g. Molecular Devices SPECTRAmax PLUS, SOFTmax PRO). A280 values are the result of two independent determinations.

[4] = Zn/GLP-1 molar ratio 0, 100 μM GLP-1 compound
[5] = Zn/GLP-1 molar ratio 0.3, 100 μM GLP-1 compound
[6] = Zn/GLP-1 molar ratio 0.5, 100 μM GLP-1 compound
[7] = Zn/GLP-1 molar ratio 0.7, 100 μM GLP-1 compound
[8] = Zn/GLP-1 molar ratio 1, 100 μM GLP-1 compound
[9] = Zn/GLP-1 molar ratio 2, 100 μM GLP-1 compound
[10] = Zn/GLP-1 molar ratio 3, 100 μM GLP-1 compound
[11] = Zn/GLP-1 molar ratio 5, 100 μM GLP-1 compound

| Substance | GLP-1 Receptor Activation [2] | Aggregation Time [1] [h] | other results |
| --- | --- | --- | --- |
| Val^8-Pro^22-GLP-1(7-37)OH (HVEGTFTSDVSSYLEPQAAKEFIAWLVKGRG) | 0.01 | >75 | A280 [3, 4]: 0.2595; A280 [3, 5]: 0.2455; A280 [3, 6]: 0.2325; A280 [3, 7]: 0.219; A280 [3, 8]: 0.1905; A280 [3, 9]: 0.1695; A280 [3, 10]: 0.1615; A280 [3, 11]: 0.171 |
| Val^8-Lys^20-GLP-1(7-37)OH (HVEGTFTSDVSSYKEGQAAKEFIAWLVKGRG) | 0.33 | 5 | – |
| Val^8-Lys^33-Asn^34-GLP-1(7-37)OH | 0.09 | >48 | – |
| Val^8-Ser^22-GLP-1(7-37)OH (HVEGTFTSDVSSYLESQAAKEFIAWLVKGRG) | 0.50 | 22 | A280 [3, 4]: 0.2855; A280 [3, 5]: 0.2805; A280 [3, 6]: 0.2665; A280 [3, 7]: 0.1825; A280 [3, 8]: 0.149; A280 [3, 9]: 0.0935; A280 [3, 10]: 0.101; A280 [3, 11]: 0.0615 |
| Val^8-Asp^22-GLP-1(7-37)OH (HVEGTFTSDVSSYLEDQAAKEFIAWLVKGRG) | 0.40 | >90 | A280 [3, 4]: 0.288; A280 [3, 5]: 0.2785; A280 [3, 6]: 0.2845; A280 [3, 7]: 0.287; A280 [3, 8]: 0.291; A280 [3, 9]: 0.184; A280 [3, 10]: 0.1485; A280 [3, 11]: 0.1675 |
| Val^8-Glu^22-Lys^23-GLP-1(7-37)OH (HVEGTFTSDVSSYLEEKAAKEFIAWLVKGRG) | 1.43 | >65 | – |
| Val^8-Gly^33-GLP-1(7-37)OH (HVEGTFTSDVSSYLEGQAAKEFIAWLGKGRG) | 0.01 | 9 | – |
| Val^8-Tyr^16-GLP-1(7-37)OH (HVEGTFTSDYSSYLEGQAAKEFIAWLVKGRG) | 1.175 | 5 | – |
| Val^8-His^22-GLP-1(7-37)OH (HVEGTFTSDVSSYLEHQAAKEFIAWLVKGRG) | 0.14 | >75 | – |
| Gly^8-Glu^30-GLP-1(7-37)OH (HGEGTFTSDVSSYLEGQAAKEFIEWLVKGRG) | 0.29 | >40 | – |
| Ala^8-Glu^26-GLP-1(7-37)OH (HAEGTFTSDVSSYLEGQAAEEFIAWLVKGRG) | 0.7 | >24 | – |
| Val^8-His^27-GLP-1(7-37)OH (HVEGTFTSDVSSYLEGQAAKHFIAWLVKGRG) | 0.37 | 10 | – |
| Val^8-Glu^35-GLP-1(7-37)OH (HVEGTFTSDVSSYLEGQAAKEFIAWLVKERG) | 0.15 | 63 | – |
| Val^8-Lys^24-GLP-1(7-37)OH (HVEGTFTSDVSSYLEGQKAKEFIAWLVKGRG) | 0.02 | 22 | – |
| Val^8-Leu^16-Glu^26-GLP-1(7-37)OH (HVEGTFTSDLSSYLEGQAAEEFIAWLVKGRG) | 0.23 | >20 | – |

More lines, main results first:

| GLP-1 Receptor Activation [2] | Substance | Aggregation Time [1] [h] | other results |
| --- | --- | --- | --- |
| 0.56 | Val^8-Ala^22-GLP-1(7-37)OH (HVEGTFTSDVSSYLEAQAAKEFIAWLVKGRG) | 19 | A280 [3, 4]: 0.289; A280 [3, 5]: 0.202; A280 [3, 6]: 0.107; A280 [3, 7]: 0.104; A280 [3, 8]: 0.110; A280 [3, 9]: 0.110; A280 [3, 10]: 0.104; A280 [3, 11]: 0.119 |
| 0.11 | Val^8-Glu^36-GLP-1(7-37)OH (HVEGTFTSDVSSYLEGQAAKEFIAWLVKGEG) | >45 | – |
| 0.19 | Val^8-Ser^30-GLP-1(7-37)OH (HVEGTFTSDVSSYLEGQAAKEFISWLVKGRG) | 8 | – |
| 0.29 | Val^8-Glu^30-GLP-1(7-37)OH (HVEGTFTSDVSSYLEGQAAKEFIEWLVKGRG) | 30 | – |
| 0.08 | Val^8-Lys^33-Val^34-GLP-1(7-37)OH (HVEGTFTSDVSSYLEGQAAKEFIAWLKVGRG) | 22 | – |
| 0.047 | Val^8-Glu^16-GLP-1(7-37)OH (HVEGTFTSDESSYLEGQAAKEFIAWLVKGRG) | 12 | – |
| 0.094 | Val^8-Pro^35-GLP-1(7-37)OH (HVEGTFTSDVSSYLEGQAAKEFIAWLVKPRG) | 14 | – |
| 1.0 | Val^8-Glu^22-GLP-1(7-36)NH2 (HVEGTFTSDVSSYLEEQAAKEFIAWLVKGR-NH2) | >65 | – |
| 0.19 | Val^8-His^30-GLP-1(7-37)OH (HVEGTFTSDVSSYLEGQAAKEFIHWLVKGRG) | 13 | – |
| 0.8 | Ala^8-His^26-GLP-1(7-37)OH (HAEGTFTSDVSSYLEGQAAHEFIAWLVKGRG) | >24 | – |
| 0.021 | Val^8-Ala^11-GLP-1(7-37)OH (HVEGAFTSDVSSYLEGQAAKEFIAWLVKGRG) | 10 | – |
| 0.282 | Gly^8-His^11-GLP-1(7-37)OH (HGEGHFTSDVSSYLEGQAAKEFIAWLVKGRG) | – | Aggregation Time in Hours ([1]; *Aggregation time determined at 30° C.): 9* Hours |
| 0.15 | Val^8-Asp^30-GLP-1(7-37)OH (HVEGTFTSDVSSYLEGQAAKEFIDWLVKGRG) | >45 | – |
| 0.18 | Val^8-Lys^23-GLP-1(7-37)OH (HVEGTFTSDVSSYLEGKAAKEFIAWLVKGRG) | >45 | – |
| 0.112 | Val^8-Ala^16-GLP-1(7-37)OH (HVEGTFTSDASSYLEGQAAKEFIAWLVKGRG) | 16 | – |
| 0.22 | Val^8-His^36-GLP-1(7-37)OH (HVEGTFTSDVSSYLEGQAAKEFIAWLVKGHG) | 8 | – |
| 0.53 | Val^8-Gly^36-Pro^37-GLP-1(7-37)NH2 (HVEGTFTSDVSSYLEGQAAKEFIAWLVKGGP-NH2) | 2 | – |
